System: Escherichia coli TOP10
Test: shrunken log2 fold change of peptide-encoding DNA abundance (4.5 h post-induction vs induction); higher = less antimicrobial activity (less host growth inhibition)
Settings: time post-induction: 4.5 h; library: site-saturation at positions 5, 18, 19, 20
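Further: peptides expressed intracellularly from a pBAD plasmid library in pooled LB shake-flask culture, induced with 0.3% L-arabinose, DNA abundance read by NGS, three biological replicates, DESeq2 with apeglm shrinkage.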

| Sequence | shrunken log2 fold change |
| --- | --- |
| RRIRFRPPRLPRPRPRPGTKPRP | 0.478 |
| RRIRSRPPRLPRPRPRPAFYPRP | -0.166 |
| RRIRHRPPRLPRPRPRPPHGPRP | 0.389 |
| RRIRWRPPRLPRPRPRPYMWPRP | 0.00889 |
| RRIRGRPPRLPRPRPRPANCPRP | 0.147 |
| RRIRNRPPRLPRPRPRPNCQPRP | -0.182 |
| RRIRSRPPRLPRPRPRPRSTPRP | 0.0523 |
| RRIRARPPRLPRPRPRPHWEPRP | -0.00635 |
| RRIRQRPPRLPRPRPRPVTEPRP | -0.35 |
| RRIRPRPPRLPRPRPRPYLAPRP | -0.528 |
| RRIRIRPPRLPRPRPRPAVFPRP | 0.103 |
| RRIRWRPPRLPRPRPRPDMTPRP | 0.216 |
| RRIRLRPPRLPRPRPRPRTRPRP | 0.519 |
| RRIRFRPPRLPRPRPRPAEFPRP | 1.14 |
| RRIRARPPRLPRPRPRPMEFPRP | -0.117 |
| RRIRIRPPRLPRPRPRPPNMPRP | -0.422 |
| RRIRFRPPRLPRPRPRPEHYPRP | -0.101 |
| RRIRIRPPRLPRPRPRPSQSPRP | -0.0979 |
| RRIRSRPPRLPRPRPRPPRLPRP | 0.322 |
| RRIRCRPPRLPRPRPRPLSAPRP | 0.00383 |
| RRIRARPPRLPRPRPRPVEYPRP | 0.0729 |
| RRIRLRPPRLPRPRPRPITLPRP | -0.553 |
| RRIRGRPPRLPRPRPRPGVIPRP | 0.375 |
| RRIRCRPPRLPRPRPRPEASPRP | 0.14 |
| RRIRPRPPRLPRPRPRPVHTPRP | -0.036 |

| Sequence | shrunken log2 fold change |
| --- | --- |
| RRIRKRPPRLPRPRPRPQPTPRP | 0.5 |
| RRIRTRPPRLPRPRPRPWFTPRP | 0.00948 |
| RRIRYRPPRLPRPRPRPDRLPRP | -0.216 |
| RRIRSRPPRLPRPRPRPWHSPRP | -0.0018 |
| RRIRNRPPRLPRPRPRPQTPPRP | -0.00271 |
| RRIRVRPPRLPRPRPRPFSHPRP | -0.358 |
| RRIRYRPPRLPRPRPRPWHNPRP | -0.626 |
| RRIRSRPPRLPRPRPRPEPSPRP | 0.859 |
| RRIRFRPPRLPRPRPRPQGLPRP | -0.462 |
| RRIRPRPPRLPRPRPRPHAKPRP | 1.39 |
| RRIRGRPPRLPRPRPRPTYFPRP | 0.0176 |
| RRIRCRPPRLPRPRPRPINQPRP | -0.485 |
| RRIRCRPPRLPRPRPRPNAHPRP | -0.221 |
| RRIRVRPPRLPRPRPRPMQDPRP | 0.0217 |
| RRIRDRPPRLPRPRPRPLQFPRP | 0.0246 |
| RRIRSRPPRLPRPRPRPPISPRP | -0.0261 |
| RRIRIRPPRLPRPRPRPWNCPRP | -0.000121 |
| RRIRTRPPRLPRPRPRPAHDPRP | 0.268 |
| RRIRRRPPRLPRPRPRPIQMPRP | 0.272 |
| RRIRRRPPRLPRPRPRPDQPPRP | 0.0262 |
| RRIRQRPPRLPRPRPRPDMTPRP | -0.129 |
| RRIRSRPPRLPRPRPRPYHLPRP | -0.415 |
| RRIRMRPPRLPRPRPRPRMNPRP | -0.138 |
| RRIRTRPPRLPRPRPRPWFLPRP | -0.401 |
| RRIRCRPPRLPRPRPRPTAIPRP | -0.273 |

| Sequence | shrunken log2 fold change |
| --- | --- |
| RRIRIRPPRLPRPRPRPRQPPRP | -0.0694 |
| RRIRIRPPRLPRPRPRPCWCPRP | -0.063 |
| RRIRNRPPRLPRPRPRPREKPRP | 0.377 |
| RRIRNRPPRLPRPRPRPRHCPRP | 0.00979 |
| RRIRLRPPRLPRPRPRPLKIPRP | -0.221 |
| RRIRSRPPRLPRPRPRPITLPRP | -0.333 |
| RRIRDRPPRLPRPRPRPDRQPRP | 0.0286 |
| RRIRQRPPRLPRPRPRPMNKPRP | -0.169 |
| RRIRFRPPRLPRPRPRPPLCPRP | 0.282 |
| RRIRERPPRLPRPRPRPPRWPRP | 0.508 |
| RRIRQRPPRLPRPRPRPSQDPRP | -0.0378 |
| RRIRTRPPRLPRPRPRPRMRPRP | 0.753 |
| RRIRHRPPRLPRPRPRPQFPPRP | -0.157 |
| RRIRHRPPRLPRPRPRPMSGPRP | -0.0285 |
| RRIRPRPPRLPRPRPRPWDQPRP | -0.0786 |
| RRIRPRPPRLPRPRPRPWNAPRP | -0.118 |
| RRIRKRPPRLPRPRPRPEFLPRP | -0.00158 |
| RRIRMRPPRLPRPRPRPWMCPRP | -0.01 |
| RRIRFRPPRLPRPRPRPWFWPRP | -0.285 |
| RRIRHRPPRLPRPRPRPMCAPRP | -0.446 |
| RRIRVRPPRLPRPRPRPDSRPRP | 0.0857 |
| RRIRLRPPRLPRPRPRPEKDPRP | 0.191 |
| RRIRVRPPRLPRPRPRPEWFPRP | -0.154 |
| RRIRNRPPRLPRPRPRPPNHPRP | 0.0878 |
| RRIRYRPPRLPRPRPRPTWLPRP | 0.00076 |

— the supplement of paper PMC9112550, “Optimization of the antimicrobial peptide Bac7 by deep mutational scanning” (BMC Biology, 2022)
